Experimental data as given in patent US20110077210A1 (published 2011).
Values belong to the binder of their own block, whether it stands above or below them.

What was measured:
HDAC1-flag = HDAC1-flag (Homo sapiens (Human), UniProt Q13547 1-482); test: cell-based or functional assay
[1] = molecular target: T1, full length HDAC1 (yeast two-hybrid bait) (Homo sapiens (Human), UniProt Q13547 1-482); test: yeast two-hybrid screen
T1 construct: also called histone deacetylase 1
T1 sequence (Q13547 whole entry): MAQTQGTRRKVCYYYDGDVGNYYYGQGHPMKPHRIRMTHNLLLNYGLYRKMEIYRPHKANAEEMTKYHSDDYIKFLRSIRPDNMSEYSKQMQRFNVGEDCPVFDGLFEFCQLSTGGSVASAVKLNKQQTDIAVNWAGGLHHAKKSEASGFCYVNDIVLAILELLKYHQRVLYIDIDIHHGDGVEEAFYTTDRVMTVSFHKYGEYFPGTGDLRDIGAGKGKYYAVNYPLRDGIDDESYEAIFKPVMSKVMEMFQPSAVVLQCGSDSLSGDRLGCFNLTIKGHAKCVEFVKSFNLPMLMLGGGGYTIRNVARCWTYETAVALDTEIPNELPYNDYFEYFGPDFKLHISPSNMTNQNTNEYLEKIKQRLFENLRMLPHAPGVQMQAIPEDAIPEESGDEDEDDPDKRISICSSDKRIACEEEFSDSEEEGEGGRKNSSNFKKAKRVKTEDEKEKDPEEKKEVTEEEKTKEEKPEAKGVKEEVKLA

Chain of HDAC1-flag (Q13547 whole entry): as above

HDAC1 activity: release of [3H]acetic acid from an [3H]acetyl-labeled histone H4 peptide by immunoprecipitated HDAC1 (HDAC1-flag): ~4 fold
B1: V5-APPL (full length APPL protein) (other, not shown: small tags and cut ends)
chain: MPGIDKLPIEETLEDSPQTRSLLGVFEEDATAISNYMNQLYQAMHRIYDAQNELSAATHLTSKLLKEYEKQRFPLGGDDEVMSSTLQQFSKVIDELSSCHAVLSTQLADAMMFPITQFKERDLKEILTLKEVFQIASNDHDAAINRYSRLSKKRENDKVKYEVTEDVYTSRKKQHQTMMHYFCALNTLQYKKKIALLEPLLGYMQAQISFFKMGSENLNEQLEEFLANIGTSVQNVRREMDSDIETMQQTIEDLEVASDPLYVPDPDPTKFPVNRNLTRKAGYLNARNKTGLVSSTWDRQFYFTQGGNLMSQARGDVAGGLAMDIDNCSVMAVDCEDRRYCFQITSFDGKKSSILQAESKKDHEEWICTINNISKQIYLSENPEETAARVNQSALEAVTPSPSFQQRHESLRPAAGQSRPPTARTSSSGSLGSESTNLAALSLDSLVAPDTPIQFDIISPVCEDQPGQAKAFGQGGRRTNPFGESGGSTKSETEDSILHQLFIVRFLGSMEVKSDDHPDVVYETMRQILAARAIHNIFRMTESHLLVTCDCLKLIDPQTQVTRLTFPLPCVVLYATHQENKRLFGFVLRTSSGRSESNLSSVCYIFESNNEGEKICDSVGLAKQIALHAELDRRASEKQKEIERVKEKQQKELNKQKQIEKDLEEQSRLIAASSRPNQASSEGQFVVLSSSQSEESDLGEGGKKRESEA

binding result [1]: binds
B2: fragment of APPL (aa 489-639) identified in the yeast two-hybrid screen (other)
chain: TKSETEDSILHQLFIVRFLGSMEVKSDDHPDVVYETMRQILAARAIHNIFRMTESHLLVTCDCLKLIDPQTQVTRLTFPLPCVVLYATHQENKRLFGFVLRTSSGRSESNLSSVCYIFESNNEGEKICDSVGLAKQIALHAELDRRASEKQ
notes: Prey from a human brain cDNA library; The fragment fully overlaps the PTB domain (aa 500-634); also called APPL-PTB; fragment of DIP13alpha
